Data published in PMC6555636.

Experiments:
[1] = biological target: PTEX150 (P. falciparum (endogenous in strain NF54attB)); test: cryo-EM structure
[2] = biological target: EXP2 (P. falciparum (endogenous in strain NF54attB)); test: cryo-EM structure

PTEX150 (natural protein)
stoichiometry N [1]: 7

EXP2 (natural protein)
stoichiometry N [2]: 7
